PMC12419796

Target: H1N1 A/PR/8/1934 (Cambridge strain) neuraminidase, recombinant soluble tetramer with tetrabrachion domain (Staphylothermus marinus | influenza A virus H1N1 A/PR/8/1934 (Cambridge strain))
Assay: cross-linking

With “H1N1 A/PR/8/1934 (Cambridge strain) neuraminidase, recombinant soluble tetramer with tetrabrachion domain (enzyme)” the stoichiometry N was 4.
